B1: P3-11 (antibody, V domains shown)
VH: QVQLVESGGGLVQPGGSLRLSCAASGITVSSNYMSWVRQAPGKGLEWVSVIYSGGSTFYADPVKGRLTISRDNSKNTLYLQMNSVRVEDTAVYYCARGEGWELPFDYWGQGALVTVSS
VL: QSALTQPPSASGSPGQSVTISCTGTSSDVGGNKYVSWYQQHPGKAPKLIIYEVSKRPSGVPDRFSGSKSGNTASLTVSGLQAEDEADYHCSSYAGSNNLVFGGGTKLTVL
notes: also called candidate antibody molecule P3-11
B2: P5-22 (antibody, V domains shown)
VH: EVQLVESGGGLVKPGGSLRLSCAASGFTFRDYDIIWIRQAPGKGLEWVSYISRSGSTIYYSDSVRGRFTISRDNAKNSVYLQMNSLRAEDTAVYYCARDFGFEGPRMDVWGQGTTVTVSS
VL: DIQMTQSPSSLSASVGDRVTITCQASQDIKNYLNWYQQKPGKAPKLLIYDASNLETGVPSRFSGSGSGTDFTFTISSLQPEDIATYYCQQFDNLPITFGQGTRLEIK
notes: also called candidate antibody molecule P5-22
B3: P10-20 (antibody, V domains shown)
VH: QVQLVESGGGLVKPGGSLRLSCAASGFTFSDYYMSWIRQAPGKGLEWVSYISISSTYTNYADSVKGRFTISRDNAKNSLYLQMNSLRAEDTAVYYCVIAAAGKGHYYYGMDVWGQGTTVTVSS
VL: not shown
notes: also called candidate antibody molecule P10-20
B4: P14-37 (antibody, V domains shown)
VH: EVQLVESGGGLVKPGGSLRLSCAASGFTFSNAWMSWVRQAPGKGLEWVGRIKRNSDGGTTDHAAPVTGRFIISRDDSKNTLYLQMNSLRTEDTAVYYCTTDLDTVVRRVVITDHDAFDIWGQGTMVTVSS
VL: DIQMTQSPSSLSASVGDRVTITCRASQSISSFLNWYQQKAGKAPKLLIYAASSLQSGVPSRFSGSGSGTDFSLTISNLQPEDFATYYCQQSYSTPSITFGQGTRLEIK
notes: also called candidate antibody molecule P14-37
B5: P14-44 (antibody, V domains shown)
VH: QVQLVQSGAEVKKPGASVKVSCKASGYIFTSYSMHWVRQAPGQGLEWMGTIKPSDDSTNYAQKFQGRVSMTRDTSTSTVYMELSSLRYEDTAVYYCAREARGYYDRSGYYHPGYFDYWGQGTLVTVSS
VL: QSVLTQPASVSGSPGQSITISCTGTSSDVGGYNFVSWYQQHPGKAPKLMIYEVSDRPSGVSSRFSGSKSGNTASLTISGLQAEDEADYYCFSYTTSTTWVFGGGTKLTVL
notes: also called candidate antibody molecule P14-44
B6: P15-16 (antibody, V domains shown)
VH: QVQLVESGGGLVQPGRSLTLSCAASGFTFDDYAMHWVRQAPGKGLEWVSGISWNSGTIDYADSVKGRFTISRDNAKNSLYLQMNSLRAEDTALYYCATLPRERAYSGYDRIFYTIDVWGQGTTVTVSS
VL: not shown
notes: also called candidate antibody molecule P15-16
B7: P23-29 (antibody, V domains shown)
VH: QVQLQESGPGLVKPSETLSLTCTVSGDSISSSTYYWGWIRQPPGKGLEWIGSMYYGRSTYYNPSLKSRVTVSVDTSKNQLSLKVSSVTAADTAVYYCARHLGGVDYWGQGTLVTVSS
VL: DIQMTQSPSSLSASVGDRVTITCRASQGISNSLAWYQQEPGKAPKLLLYAASTLESGVPSRFSGSGSGADSTLTISSLQPEDFATYYCQQYYSASALTFGGGTKVEIK
notes: also called candidate antibody molecule P23-29

The binders below were run against nCoV S (ACRO, SPN-C52H4) (SARS-CoV-2, UniProt P0DTC2 16-1213).

Row | Binder | EC50
1 | B1 | 0.0226 nM
2 | B2 | 0.0226 nM
3 | B3 | 0.0184 nM
4 | B4 | 0.0161 nM
5 | B5 | 0.0213 nM
6 | B6 | 0.0228 nM
7 | B7 | 0.0364 nM

Source: patent US20230391854A1 (Innovent, published 2023)
